Data from US20200283521A1 (GRANULAR THERAPEUTICS, published 2020).
Like-named read-outs stand apart in the source and are kept apart here.

What was measured:
hLTBR-Fc [1] = molecular target: T1, hLTBR-Fc (human, UniProt P36941); test: direct ELISA on coated protein, IgG1
T1 construct: Fc fusion; member of the panel m9

hDR6-Fc [2] = molecular target: T2, hDR6-Fc (human, UniProt O75509); test: direct ELISA on coated protein, IgG1
T2 construct: Fc fusion; member of the panel m9
T2 sequence (looked up): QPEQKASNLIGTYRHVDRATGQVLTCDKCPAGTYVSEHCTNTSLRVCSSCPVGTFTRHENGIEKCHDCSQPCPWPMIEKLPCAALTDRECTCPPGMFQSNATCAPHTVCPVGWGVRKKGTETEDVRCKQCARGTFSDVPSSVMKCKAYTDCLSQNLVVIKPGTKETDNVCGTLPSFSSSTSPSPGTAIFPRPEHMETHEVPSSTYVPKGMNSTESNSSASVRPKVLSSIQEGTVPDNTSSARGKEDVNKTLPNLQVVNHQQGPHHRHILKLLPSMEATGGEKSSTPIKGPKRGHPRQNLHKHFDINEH

hEpCAM-Fc = molecular target: T3, hEpCAM-Fc (human, UniProt P16422); test: direct ELISA on coated protein, IgG1
T3 construct: Fc fusion; member of the panel m9
T3 sequence (looked up): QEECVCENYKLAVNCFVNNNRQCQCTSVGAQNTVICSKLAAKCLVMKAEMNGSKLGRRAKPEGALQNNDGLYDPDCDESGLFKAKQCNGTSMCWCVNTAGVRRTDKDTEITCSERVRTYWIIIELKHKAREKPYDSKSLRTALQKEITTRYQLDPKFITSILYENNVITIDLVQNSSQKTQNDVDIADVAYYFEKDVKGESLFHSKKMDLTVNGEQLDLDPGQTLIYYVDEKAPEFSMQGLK

hDR3-Fc [3] = molecular target: T4, hDR3-Fc (human, UniProt Q93038); test: direct ELISA on coated protein, IgG1
T4 construct: Fc fusion; member of the panel m9
T4 sequence (looked up): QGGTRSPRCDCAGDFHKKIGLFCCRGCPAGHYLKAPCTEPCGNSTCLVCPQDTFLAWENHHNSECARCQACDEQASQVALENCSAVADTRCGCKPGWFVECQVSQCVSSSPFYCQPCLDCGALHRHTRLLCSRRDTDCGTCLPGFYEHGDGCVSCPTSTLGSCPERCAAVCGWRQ

hOX40-Fc = molecular target: T5, hOX40-Fc; test: direct ELISA on coated protein, IgG1
T5 construct: member of the panel m9
T5 chain: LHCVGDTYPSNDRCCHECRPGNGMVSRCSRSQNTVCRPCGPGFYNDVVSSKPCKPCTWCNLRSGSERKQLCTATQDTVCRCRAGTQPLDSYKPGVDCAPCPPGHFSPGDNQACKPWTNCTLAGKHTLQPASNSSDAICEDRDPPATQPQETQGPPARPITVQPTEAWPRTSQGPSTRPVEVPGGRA

hICAM-1-Fc = molecular target: T6, hICAM-1-Fc (human, UniProt P05362); test: direct ELISA on coated protein, IgG1
T6 construct: Fc fusion; member of the panel m9
T6 sequence (P05362 28-480 limits assumed): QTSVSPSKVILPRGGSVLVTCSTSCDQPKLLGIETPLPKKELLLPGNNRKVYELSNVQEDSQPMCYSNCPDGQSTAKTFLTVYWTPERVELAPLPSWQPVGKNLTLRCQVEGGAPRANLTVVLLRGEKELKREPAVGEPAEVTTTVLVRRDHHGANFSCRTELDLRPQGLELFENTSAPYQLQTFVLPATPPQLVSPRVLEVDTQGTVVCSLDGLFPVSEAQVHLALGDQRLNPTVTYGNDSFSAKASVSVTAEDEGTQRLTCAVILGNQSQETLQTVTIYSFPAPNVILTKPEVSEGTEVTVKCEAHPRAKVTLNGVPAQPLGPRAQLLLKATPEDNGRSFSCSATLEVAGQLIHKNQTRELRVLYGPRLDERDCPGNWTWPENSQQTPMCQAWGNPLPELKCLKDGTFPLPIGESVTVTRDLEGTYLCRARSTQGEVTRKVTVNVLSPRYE

[4] = molecular target: T7, cynomolgus monkey C-KIT-Fc (cynomolgus monkey); test: direct titration ELISA on coated C-KIT-Fc, IgG1 format
T7 construct: also called cyno C-KIT-Fc

hLTBR-Fc [5] = molecular target: T1, hLTBR-Fc; test: direct ELISA on coated protein, IgG1; remark: listed apart in the source
hDR6-Fc [6] = molecular target: T2, hDR6-Fc; test: direct ELISA on coated protein, IgG1; remark: listed apart in the source
hDR3-Fc [7] = molecular target: T4, hDR3-Fc; test: direct ELISA on coated protein, IgG1; remark: listed apart in the source
hCMET-Fc = molecular target: T8, hCMET-Fc (The natural ectodomain is cleaved by furin after residue 307 into disulfide-linked alpha and beta chains. It is given here as one continuous stretch.); test: direct ELISA on coated protein, IgG1
T8 construct: member of the panel m9
T8 chain: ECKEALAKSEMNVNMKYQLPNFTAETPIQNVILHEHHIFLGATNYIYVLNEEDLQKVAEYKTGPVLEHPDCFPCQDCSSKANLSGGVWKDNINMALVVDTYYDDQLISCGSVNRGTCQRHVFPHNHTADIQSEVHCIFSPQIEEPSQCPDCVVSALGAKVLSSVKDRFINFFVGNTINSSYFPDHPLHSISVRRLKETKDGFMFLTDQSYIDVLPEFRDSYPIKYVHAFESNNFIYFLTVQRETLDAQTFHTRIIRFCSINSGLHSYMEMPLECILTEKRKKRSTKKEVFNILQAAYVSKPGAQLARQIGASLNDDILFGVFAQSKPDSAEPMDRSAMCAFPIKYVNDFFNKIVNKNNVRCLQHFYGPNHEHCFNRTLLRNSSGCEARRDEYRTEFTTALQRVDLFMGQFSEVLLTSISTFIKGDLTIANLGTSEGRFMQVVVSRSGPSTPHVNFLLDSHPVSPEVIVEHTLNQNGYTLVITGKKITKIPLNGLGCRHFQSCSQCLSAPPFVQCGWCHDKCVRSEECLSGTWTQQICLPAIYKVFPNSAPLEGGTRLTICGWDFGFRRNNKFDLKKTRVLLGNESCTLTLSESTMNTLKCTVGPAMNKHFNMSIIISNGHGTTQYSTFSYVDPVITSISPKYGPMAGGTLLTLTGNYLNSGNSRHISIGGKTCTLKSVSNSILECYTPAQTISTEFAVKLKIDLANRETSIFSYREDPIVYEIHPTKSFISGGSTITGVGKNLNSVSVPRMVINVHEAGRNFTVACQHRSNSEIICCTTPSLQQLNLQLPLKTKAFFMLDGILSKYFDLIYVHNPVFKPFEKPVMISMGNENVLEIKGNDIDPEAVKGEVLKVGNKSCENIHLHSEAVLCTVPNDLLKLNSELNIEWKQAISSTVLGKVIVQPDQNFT

hCD4 = molecular target: T9, hCD4 (human, UniProt P01730); test: direct ELISA on coated protein, IgG1
T9 construct: purified recombinant protein; member of the panel m9

hTWEAK-Fc = molecular target: T10, hTWEAK-Fc (human, UniProt O43508); test: direct ELISA on coated protein, IgG1
T10 construct: Fc fusion; member of the panel m9
T10 sequence (looked up): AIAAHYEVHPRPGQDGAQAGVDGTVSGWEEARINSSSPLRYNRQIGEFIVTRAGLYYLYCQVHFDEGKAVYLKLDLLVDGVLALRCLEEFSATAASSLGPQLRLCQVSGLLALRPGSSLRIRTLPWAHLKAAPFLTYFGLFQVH

T1 sequence (P36941 28-227 limits assumed): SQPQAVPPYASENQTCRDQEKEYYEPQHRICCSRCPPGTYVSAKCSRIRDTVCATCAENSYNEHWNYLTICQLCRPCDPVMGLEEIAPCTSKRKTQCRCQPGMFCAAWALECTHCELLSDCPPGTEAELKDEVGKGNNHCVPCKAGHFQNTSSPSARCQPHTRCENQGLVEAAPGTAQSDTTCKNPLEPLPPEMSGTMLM

B1: humanized h37M, human IgG1 (antibody, V domains shown)
VH: QVQLVQSGAEVKKPGASVKLSCKASGYTFTDYYINWVRQAPGKGLEWIARIYPGSGNTYYNEKFKGRATLTADKSTSTAYMQLSSLRSEDTAVYFCARGVYYFDYWGQGTTVTVSS
VL: DIVMTQSPSSLSASVGDRVTITCKASQNVRTNVAWYQQKPGKAPKALIYSASYRYSGVPDRFTGSGSGTDFTLTISSLQPEDFADYFCQQYNSYPRTFGGGTKVEIK
notes: human IgG1; terbium-labelled as the tracer of the HTRF assays; also called C-KIT-h37M; h37M-IgG1
B1: no binding (tested: 1 µg/ml) (hLTBR-Fc [1]); no binding (tested: 1 µg/ml) (hDR6-Fc [2]); no binding (tested: 1 µg/ml) (hEpCAM-Fc). B1: no binding (tested: 1 µg/ml) (hDR3-Fc [3]); no binding (tested: 1 µg/ml) (hOX40-Fc); no binding (tested: 1 µg/ml) (hICAM-1-Fc).

B2: MH5, human IgG1 (antibody, V domains shown)
VH: QVQLVQSGAEVKKPGASVKVSCKASGYTFTDYYMNWVRQAPGQGLEWMGRIYPGSGNTYYAQKFQGRVTMTRDTSTSTVYMELSSLRSEDTAVYYCARGVYYYDYWGQGTLVTVSS
VL: DIQMTQSPSSLSASVGDRVTITCRASQGIRTNLAWFQQKPGKAPKSLIYSASSLQSGVPSRFSGSGSGTDFTLTISSLQPEDFATYYCQQYANYPRTFGGGTKVEIK
notes: IgG1; also called C-KIT-MH5; C-KIT-MHS
With B2 the “EC50 (read off the curve)” value [4] was ~0.1 µg/mL.

B3: MH1, human IgG1 (antibody, V domains shown)
VH: QVQLVQSGAEVKKPGASVKVSCKASGYTFTDYYMNWVRQAPGQGLEWMGRIYPGSGNTYYAQKFQGRVTMTRDTSTSTVYMELSSLRSEDTAVYYCARGVYYYDYWGQGTLVTVSS
VL: DIQMTQSPSSLSASVGDRVTITCRASQGIRTNLAWFQQKPGKAPKSLIYAASSLQSGVPSRFSGSGSGTDFTLTISSLQPEDFATYYCQQYNSYPRTFGGGTKVEIK
notes: IgG1; also called IgG1-MH1
B3: no binding (tested: 1 µg/ml) (hLTBR-Fc [5]); no binding (tested: 1 µg/ml) (hDR6-Fc [6]); no binding (tested: 1 µg/ml) (hDR3-Fc [7]). B3: no binding (tested: 1 µg/ml) (hCMET-Fc); no binding (tested: 1 µg/ml) (hCD4); no binding (tested: 1 µg/ml) (hTWEAK-Fc).
